Publication PMC3120129 (Biochemistry, 2011)
Values belong to the molecule of their own block, whether it stands above or below them.

Assays:
[1] = target: E2 domain of amyloid precursor protein (APP), construct APP_(346–548), native (human) (UniProt P05067); assay: AUC
crystal structure = target: the molecule itself; assay: crystal structure

Kd [1]: 9.2 µM
stoichiometry N [1]: 2
Molecule: E2 domain of amyloid precursor protein (APP), construct APP_(346–548), native (from UniProt P05067-8 346-548) (domain or fragment)

B1: E2 domain of APLP1, construct APLP1_(285–499) (crystallised) (domain or fragment, human, UniProt P51693 285-499, looked up)
chain: TPTPRPTDGVDIYFGMPGEISEHEGFLRAKMDLEERRMRQINEVMREWAMADNQSKNLPKADRQALNEHFQSILQTLEEQVSGERQRLVETHATRVIALINDQRRAALEGFLAALQADPPQAERVLLALRRYLRAEQKEQRHTLRHYQHVAAVDPEKAQQMRFQVHTHLQVIEERVNQSLGLLDQNPHLAQELRPQIQELLHSEHLGPSELEAPA
binding result (crystal structure): binds
